This is an account of results in patent KR20150077770A (dated 2015).

Assay [1] deals with T1, SRS (Seryl-tRNA synthetase), purified recombinant (UniProt P49591 1-514, limits assumed).
T1 construct: also called 세릴-tRNA 합성효소
Description: Luminex multiplex bead assay, anti-HA-biotin / SA-PE detection.

Assay [2] deals with T2, YRS (Tyrosyl-tRNA synthetase), purified recombinant (UniProt P54577 1-528, limits assumed).
T2 construct: also called 타이로실-tRNA 합성효소
T2 sequence (looked up): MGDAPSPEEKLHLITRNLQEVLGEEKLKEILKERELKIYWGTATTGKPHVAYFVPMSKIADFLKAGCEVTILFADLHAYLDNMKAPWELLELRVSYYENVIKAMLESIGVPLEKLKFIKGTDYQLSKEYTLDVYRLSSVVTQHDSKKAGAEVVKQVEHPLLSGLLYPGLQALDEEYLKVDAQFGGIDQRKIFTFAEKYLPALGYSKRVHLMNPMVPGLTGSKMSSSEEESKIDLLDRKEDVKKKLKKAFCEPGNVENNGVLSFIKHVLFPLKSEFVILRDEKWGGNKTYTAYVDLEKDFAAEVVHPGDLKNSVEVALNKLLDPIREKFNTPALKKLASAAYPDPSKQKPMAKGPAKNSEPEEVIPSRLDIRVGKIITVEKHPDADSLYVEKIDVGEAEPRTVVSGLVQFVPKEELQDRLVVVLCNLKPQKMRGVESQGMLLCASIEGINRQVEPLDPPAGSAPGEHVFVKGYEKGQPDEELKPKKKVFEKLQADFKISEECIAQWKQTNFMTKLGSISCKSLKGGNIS
Described as above.

The target in assay [3] is T3, GRS (Glycyl-tRNA synthetase), purified recombinant (UniProt P41250 55-739, limits assumed).
T3 construct: also called 글리실-tRNA 합성효소
T3 sequence (looked up): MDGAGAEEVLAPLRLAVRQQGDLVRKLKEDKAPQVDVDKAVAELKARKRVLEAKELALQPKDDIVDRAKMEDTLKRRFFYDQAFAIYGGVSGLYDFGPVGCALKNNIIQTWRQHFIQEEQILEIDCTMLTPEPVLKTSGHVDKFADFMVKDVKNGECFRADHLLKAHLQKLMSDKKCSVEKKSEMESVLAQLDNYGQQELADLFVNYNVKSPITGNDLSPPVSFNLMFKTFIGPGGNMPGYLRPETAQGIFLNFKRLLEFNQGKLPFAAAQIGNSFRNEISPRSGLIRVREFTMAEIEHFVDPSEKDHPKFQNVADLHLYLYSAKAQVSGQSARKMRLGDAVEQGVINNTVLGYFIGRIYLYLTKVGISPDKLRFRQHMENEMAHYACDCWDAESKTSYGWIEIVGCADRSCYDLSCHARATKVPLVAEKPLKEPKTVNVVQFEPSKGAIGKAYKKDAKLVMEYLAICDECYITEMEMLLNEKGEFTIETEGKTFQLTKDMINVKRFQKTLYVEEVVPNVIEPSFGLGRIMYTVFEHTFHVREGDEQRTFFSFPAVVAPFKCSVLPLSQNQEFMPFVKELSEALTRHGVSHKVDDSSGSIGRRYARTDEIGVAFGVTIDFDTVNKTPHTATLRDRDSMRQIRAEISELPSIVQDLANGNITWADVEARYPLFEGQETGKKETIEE
The description is as above.

The target of assay [4] is T4, WRS (Tryptophanyl-tRNA synthetase), purified recombinant (UniProt P23381 1-471, limits assumed).
T4 construct: also called 트립토파닐-tRNA 합성효소
T4 sequence (looked up): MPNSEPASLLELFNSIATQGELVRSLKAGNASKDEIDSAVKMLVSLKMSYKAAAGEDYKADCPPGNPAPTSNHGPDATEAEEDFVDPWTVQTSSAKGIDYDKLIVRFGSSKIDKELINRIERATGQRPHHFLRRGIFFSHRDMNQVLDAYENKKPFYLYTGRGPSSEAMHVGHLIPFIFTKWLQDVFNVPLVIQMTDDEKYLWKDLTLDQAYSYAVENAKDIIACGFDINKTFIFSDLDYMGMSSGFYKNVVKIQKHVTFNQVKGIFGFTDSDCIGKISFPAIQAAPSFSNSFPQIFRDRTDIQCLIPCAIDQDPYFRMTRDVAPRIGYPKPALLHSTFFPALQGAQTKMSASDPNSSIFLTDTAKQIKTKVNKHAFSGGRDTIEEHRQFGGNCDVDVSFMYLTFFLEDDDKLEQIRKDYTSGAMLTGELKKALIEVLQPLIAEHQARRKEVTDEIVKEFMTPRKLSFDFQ
The description is as above.

The target in assay [5] is T5, NRS (Asparaginyl-tRNA synthetase), purified recombinant (UniProt O43776 1-548, limits assumed).
T5 construct: also called 아스파라기닐딜-tRNA 합성효소
T5 sequence (looked up): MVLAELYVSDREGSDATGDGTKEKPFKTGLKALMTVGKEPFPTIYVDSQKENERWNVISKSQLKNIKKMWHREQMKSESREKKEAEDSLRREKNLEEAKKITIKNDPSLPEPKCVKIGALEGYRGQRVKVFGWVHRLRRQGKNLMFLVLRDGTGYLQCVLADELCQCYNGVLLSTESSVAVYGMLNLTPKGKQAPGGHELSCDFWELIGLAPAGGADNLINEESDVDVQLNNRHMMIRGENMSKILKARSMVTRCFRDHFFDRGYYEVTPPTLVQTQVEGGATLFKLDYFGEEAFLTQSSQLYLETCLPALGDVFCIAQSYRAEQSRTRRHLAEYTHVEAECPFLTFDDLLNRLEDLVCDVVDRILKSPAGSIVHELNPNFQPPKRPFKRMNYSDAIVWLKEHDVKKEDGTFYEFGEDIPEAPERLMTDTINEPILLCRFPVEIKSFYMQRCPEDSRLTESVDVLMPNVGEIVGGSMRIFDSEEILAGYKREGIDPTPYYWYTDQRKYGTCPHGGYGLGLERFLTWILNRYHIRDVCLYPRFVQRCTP
The assay is described as above.

Assay [6] has as its target T6, AIMP1 (Aminoacyl-tRNA-synthetase-interacting multifunctional protein 1), purified recombinant (UniProt Q12904 1-312, limits assumed).
T6 construct: also called AIMP1(p43); p43
T6 sequence (looked up): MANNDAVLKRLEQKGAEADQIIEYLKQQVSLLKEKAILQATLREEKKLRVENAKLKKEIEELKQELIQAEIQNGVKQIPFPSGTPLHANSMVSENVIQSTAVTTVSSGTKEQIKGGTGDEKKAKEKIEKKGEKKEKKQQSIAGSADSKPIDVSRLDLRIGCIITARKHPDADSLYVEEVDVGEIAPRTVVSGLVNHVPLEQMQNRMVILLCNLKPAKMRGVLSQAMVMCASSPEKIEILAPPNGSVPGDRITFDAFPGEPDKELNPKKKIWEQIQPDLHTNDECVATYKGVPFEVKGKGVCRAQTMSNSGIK
Described as above.

Assay [7] has as its target T7, KRS (Lysyl-tRNA synthetase), purified recombinant (UniProt Q15046 1-597, limits assumed).
T7 construct: also called 리실-tRNA 합성효소
The description is as above.

Assay [8] has as its target T8, HRS (Histidyl-tRNA synthetase), purified recombinant antigen (human, UniProt P12081 1-509, limits assumed).
T8 construct: It was immobilised on the GLC chip (SPR), coupled to Luminex beads and used as the ELISA standard; also called HRS 항원; 재조합 HRS 표준물질
T8 sequence (looked up): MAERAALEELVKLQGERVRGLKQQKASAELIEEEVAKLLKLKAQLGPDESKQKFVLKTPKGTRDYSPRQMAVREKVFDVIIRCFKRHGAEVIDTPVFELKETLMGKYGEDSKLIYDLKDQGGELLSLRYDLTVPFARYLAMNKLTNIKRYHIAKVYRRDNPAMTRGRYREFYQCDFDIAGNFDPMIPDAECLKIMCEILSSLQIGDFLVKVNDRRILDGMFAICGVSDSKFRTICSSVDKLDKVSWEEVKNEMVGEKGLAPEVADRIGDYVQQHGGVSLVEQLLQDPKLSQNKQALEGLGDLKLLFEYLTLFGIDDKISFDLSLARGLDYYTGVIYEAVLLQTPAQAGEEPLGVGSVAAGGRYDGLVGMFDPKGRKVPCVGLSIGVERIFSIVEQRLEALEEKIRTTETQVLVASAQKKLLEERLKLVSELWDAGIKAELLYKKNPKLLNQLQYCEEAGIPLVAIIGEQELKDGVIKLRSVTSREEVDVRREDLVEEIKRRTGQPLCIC
Description: SPR (ProteOn XPR36), HRS amine-coupled on GLC chip, purified scFv 500-30 nM injected, 25 C.

T1 sequence (P49591 whole entry): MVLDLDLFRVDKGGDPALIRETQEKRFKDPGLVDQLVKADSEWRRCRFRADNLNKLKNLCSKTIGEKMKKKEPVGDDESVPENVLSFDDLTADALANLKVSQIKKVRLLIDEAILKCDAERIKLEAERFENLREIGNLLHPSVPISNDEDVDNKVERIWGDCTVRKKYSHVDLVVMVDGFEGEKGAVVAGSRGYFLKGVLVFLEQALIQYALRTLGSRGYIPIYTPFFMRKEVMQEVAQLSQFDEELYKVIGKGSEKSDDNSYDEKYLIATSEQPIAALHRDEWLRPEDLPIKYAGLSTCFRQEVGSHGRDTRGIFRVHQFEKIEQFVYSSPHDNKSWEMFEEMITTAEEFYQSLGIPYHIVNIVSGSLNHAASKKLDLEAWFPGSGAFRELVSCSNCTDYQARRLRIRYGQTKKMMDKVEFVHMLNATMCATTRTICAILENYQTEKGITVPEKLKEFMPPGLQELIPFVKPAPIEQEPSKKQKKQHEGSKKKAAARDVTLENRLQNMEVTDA
T7 sequence (Q15046 whole entry): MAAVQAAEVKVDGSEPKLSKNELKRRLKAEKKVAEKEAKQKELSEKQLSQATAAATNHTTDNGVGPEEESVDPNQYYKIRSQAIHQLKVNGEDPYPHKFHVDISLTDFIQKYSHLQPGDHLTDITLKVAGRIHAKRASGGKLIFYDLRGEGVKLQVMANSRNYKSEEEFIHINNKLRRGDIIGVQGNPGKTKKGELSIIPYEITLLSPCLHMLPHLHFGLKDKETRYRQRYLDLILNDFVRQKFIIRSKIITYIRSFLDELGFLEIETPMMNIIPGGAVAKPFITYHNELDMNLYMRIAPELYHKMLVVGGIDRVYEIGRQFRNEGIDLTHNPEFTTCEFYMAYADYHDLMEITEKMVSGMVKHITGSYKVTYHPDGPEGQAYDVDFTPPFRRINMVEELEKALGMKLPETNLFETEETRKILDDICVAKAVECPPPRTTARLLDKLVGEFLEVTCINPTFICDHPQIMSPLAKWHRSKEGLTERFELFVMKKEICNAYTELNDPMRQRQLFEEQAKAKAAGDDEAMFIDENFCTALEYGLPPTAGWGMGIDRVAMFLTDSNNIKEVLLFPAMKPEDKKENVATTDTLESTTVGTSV

B1: anti-HRS scFv Biocon-H1 (scFv)
scFv: EVQLLESGGGLVQPGGSLRLSCAASGFTFSGYYMSWVRQAPGKGLEWVSLISHGGGNIYYADSVKGRFTISRDNSKNTLYLQMNSLRAEDTAVYYCARFPLEFDYWGQGTLVTVSSGGGGSGGGGSGGGGSQSVLTQPPSASGTPGQRVTISCTGSSSNIGSNAVSWYQQLPGTAPKLLIYDDNKRPSGVLDRFSGSKSGTSASLAISGLRSEDEADYYCGTWDDSLSGYVFGGGTKLTVL
notes: Single clone from a human VH3-23/VL1g phage scFv library, expressed in E. coli periplasm; Periplasmic extract was used in the western blot and Luminex assay, Ni-NTA-purified scFv in SPR and ELISA; also called 항 HRS scFv 항체; 본 발명의 항체; not shown: tags from the pComb3X vector (purified on Ni-NTA, detected with anti-HA)
As to B1, the binding result in assay [1], in assay [2], in assay [3], in assay [4], in assay [5] and in assay [6] was “no binding” in each case. Besides, the binding result in assay [7] is given as “no binding”. Moreover, the Kd in assay [8] was 70 nM.
